{"source": "paper PMC8165985", "target": "T1, YycF (Staphylococcus aureus (ATCC29213?)) (UniProt Q9RDT5)", "T1 sequence": "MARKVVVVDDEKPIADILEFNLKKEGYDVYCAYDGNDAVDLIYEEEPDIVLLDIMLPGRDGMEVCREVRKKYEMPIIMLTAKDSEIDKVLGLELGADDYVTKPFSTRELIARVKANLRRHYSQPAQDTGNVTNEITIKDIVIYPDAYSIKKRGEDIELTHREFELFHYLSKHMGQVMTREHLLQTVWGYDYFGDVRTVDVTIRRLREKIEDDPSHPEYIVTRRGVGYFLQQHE", "assay": "EMSA", "data": [{"sequence": "CTGAAAATTAATCACACTATGTTACAGGAAAATTAAGTTGCAATTACAAATATTTCCGTTTAATTATAACAACAATCTATTGCAAATTAAAATACTATCAATTACCATATGGCTTACAACCTAACTAACGAAAGGTAGGTAAAG (double strand) [icaA promoter region]", "values": [{"measurement": "binding", "value": "binds"}]}, {"sequence": "GCGCAATTTGGTGAAGTTTGATAGATGATACATTCTATTAAACTTCCTTTTTTTATGTCTTTTTTTACCTAATTGTTAAGAGGTTTTGCACTAATGGCACTTAATATAAGGAAGATAGCCGCATAACGAGCAGTATATATCAAATACATTTCAAAAAAAGCTGATTTCTATCAAATAATGAATAGTAATCAGCTTTTTCACATTGCCTAAGGACTTTATGCCCTAGGTTTATATATCAC (double strand) [sarA promoter region]", "values": [{"measurement": "binding", "value": "binds"}]}]}
